How the values were obtained:
[1] = target: eOD-60mer (eOD-GT8 60mer; eOD-GT8 fused to lumazine synthase, self-assembled 60-mer nanoparticle); assay: biolayer interferometry, eOD-60mer in solution on immobilized biotinylated mouse MBL; apparent affinity (avidity)
[2] = target: recombinant mouse mannose-binding lectin (MBL) (mouse); assay: biolayer interferometry; eOD-60mer dilutions on biosensors loaded with biotinylated recombinant mouse MBL; apparent affinity [eOD-60mer]

Row | Substance | Kd [1] [pM] | Kd [2] [pM]
1 | recombinant mouse mannose-binding lectin (MBL) | 4 | 
2 | eOD-60mer (eOD-GT8 60mer; eOD-GT8 fused to lumazine synthase, self-assembled 60-mer nanoparticle) |  | 3.78

— patent publication US20210363194A1
